Our source for the pKi values is article PMC5457915, “Real-time analysis of the binding of fluorescent VEGF165a to VEGFR2 in living cells: Effect of receptor tyrosine kinase inhibitors and fate of internalized agonist-receptor complexes” (Biochemical Pharmacology, 2017).

A word on the pKi: it is the negative decadic logarithm of the Ki, by convention in mol/L.

B1: VEGF121a (recombinant human, R&D Systems) (ligand)
chain: APMAEGGGQNHHEVVKFMDVYQRSYCHPIETLVDIFQEYPDEIEYIFKPSCVPLMRCGGCCNDEGLECVPTEESNITMQIMRIKPHQGQHIGEMSFLQHNKCECRPKKDRARQEKCDKPRR
B2: VEGF145a (recombinant human, R&D Systems) (ligand)
chain: APMAEGGGQNHHEVVKFMDVYQRSYCHPIETLVDIFQEYPDEIEYIFKPSCVPLMRCGGCCNDEGLECVPTEESNITMQIMRIKPHQGQHIGEMSFLQHNKCECRPKKDRARQEKKSVRGKGKGQKRKRKKSRYKSWSVCDKPRR
B3: VEGF189a (recombinant human, R&D Systems) (ligand)
chain: APMAEGGGQNHHEVVKFMDVYQRSYCHPIETLVDIFQEYPDEIEYIFKPSCVPLMRCGGCCNDEGLECVPTEESNITMQIMRIKPHQGQHIGEMSFLQHNKCECRPKKDRARQEKKSVRGKGKGQKRKRKKSRYKSWSVPCGPCSERRKHLFVQDPQTCKCSCKNTDSRCKARQLELNERTCRCDKPRR
B4: VEGF165b (recombinant human, R&D Systems) (ligand)
chain: APMAEGGGQNHHEVVKFMDVYQRSYCHPIETLVDIFQEYPDEIEYIFKPSCVPLMRCGGCCNDEGLECVPTEESNITMQIMRIKPHQGQHIGEMSFLQHNKCECRPKKDRARQENPCGPCSERRKHLFVQDPQTCKCSCKNTDSRCKARQLELNERTCRSLTRKD

This assay deals with T1, NLuc-VEGFR2 (full length human VEGFR2 with NanoLuc on its N-terminus) (human, UniProt P35968-1 20-1356).
T1 construct: VEGFR2, human, subcloned from an Origene plasmid (NM_002253); called full length VEGFR2; Open reading frame: IL-6 signal peptide, NanoLuc, Gly-Ser-Ser-Gly(AIA) linker, VEGFR2 (vector pF-sNnK CMV/neo); also called NanoLuc VEGFR2; NanoLuc-tagged VEGFR2; not shown: NanoLuc, N-terminal, kept
T1 sequence (P35968 20-1356): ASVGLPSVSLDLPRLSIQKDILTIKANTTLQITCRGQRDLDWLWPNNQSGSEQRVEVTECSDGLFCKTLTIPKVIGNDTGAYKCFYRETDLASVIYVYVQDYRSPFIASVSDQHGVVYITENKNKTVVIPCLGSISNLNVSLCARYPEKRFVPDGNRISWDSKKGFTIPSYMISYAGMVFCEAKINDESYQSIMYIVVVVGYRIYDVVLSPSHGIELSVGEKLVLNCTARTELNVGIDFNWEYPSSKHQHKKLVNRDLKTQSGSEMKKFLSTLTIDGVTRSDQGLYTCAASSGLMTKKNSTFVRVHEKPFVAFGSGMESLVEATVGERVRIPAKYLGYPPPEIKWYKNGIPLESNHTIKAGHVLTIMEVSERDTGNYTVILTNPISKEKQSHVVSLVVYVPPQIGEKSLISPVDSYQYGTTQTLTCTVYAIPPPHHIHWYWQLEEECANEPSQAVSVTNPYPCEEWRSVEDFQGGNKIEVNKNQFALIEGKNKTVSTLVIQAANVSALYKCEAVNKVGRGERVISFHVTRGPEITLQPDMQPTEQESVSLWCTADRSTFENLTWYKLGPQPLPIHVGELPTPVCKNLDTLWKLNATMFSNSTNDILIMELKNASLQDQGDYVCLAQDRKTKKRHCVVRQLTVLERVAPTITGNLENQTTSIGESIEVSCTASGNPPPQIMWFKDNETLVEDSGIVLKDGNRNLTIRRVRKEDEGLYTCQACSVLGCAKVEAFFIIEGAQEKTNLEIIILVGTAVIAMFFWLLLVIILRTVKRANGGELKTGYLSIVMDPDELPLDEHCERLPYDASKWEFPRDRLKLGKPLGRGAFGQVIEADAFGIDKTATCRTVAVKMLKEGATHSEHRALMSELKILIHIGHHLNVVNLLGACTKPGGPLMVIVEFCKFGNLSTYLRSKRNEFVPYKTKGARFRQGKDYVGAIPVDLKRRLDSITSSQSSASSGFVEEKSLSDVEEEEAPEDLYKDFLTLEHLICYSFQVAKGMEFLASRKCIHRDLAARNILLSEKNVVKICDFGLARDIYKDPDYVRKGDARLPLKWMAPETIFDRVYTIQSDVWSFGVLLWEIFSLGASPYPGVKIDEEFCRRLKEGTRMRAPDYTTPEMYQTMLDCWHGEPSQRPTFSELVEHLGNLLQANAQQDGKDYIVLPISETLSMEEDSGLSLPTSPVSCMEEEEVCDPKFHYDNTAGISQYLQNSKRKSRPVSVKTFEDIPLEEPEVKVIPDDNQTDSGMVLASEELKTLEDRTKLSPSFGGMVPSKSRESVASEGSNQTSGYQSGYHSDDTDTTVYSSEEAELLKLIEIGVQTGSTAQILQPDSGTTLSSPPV
The experiment in a line: FRET or BRET; NanoBRET competition on living HEK293T NLuc-VEGFR2 cells; fixed VEGF165a-TMR (0.1-3 nM) added simultaneously with increasing unlabeled VEGF isoform, 60 min at 37 °C, HBSS/0.1% BSA; IC50 (molar) converted to pKi by Cheng-Prusoff; also linear regression of IC50 against [VEGF165a-TMR]; apparent. The note with it: one partner purified. On the technique in general: In BRET a luciferase serves as donor, and the signal depends on an acceptor being close.
For the molecule B1, the negative-log Ki (pKi) worked out at 9.47. The same measure for B2: 8.74; for B3: 8.99; for B4: 9.41.
